Data: paper PMC10716038, “Talin and kindlin use integrin tail allostery and direct binding to activate integrins” (Nature Structural & Molecular Biology, 2023)
No end group written: not given here.

What was measured:
Test in all cases: MST; unlabelled protein titrated to 50-200 nM ATTO 488-labelled β-CT peptide, no third protein; 20 mM Tris pH 7.5, 200 mM NaCl, 1 mM TCEP, 0.05% Tween-20; Kd of individual titrations (in S0002 mean and sd, n = 2)
Settings in all cases: both partners purified
THD1 K403E = molecular target: T1, THD1 K403E (UniProt P26039 1-405, K403E)
T1 construct: talin-1 (TLN1) head domain, residues 1-405, K403E; source: E. coli (DE3) Rosetta 2, purified (IMAC, SEC); not shown: His10-SUMO, N-terminal, cleaved

THD1 I399A = molecular target: T2, THD1 I399A (UniProt P26039 1-405, I399A)
T2 construct: talin-1 (TLN1) head domain, residues 1-405, I399A; source: E. coli (DE3) Rosetta 2, purified (IMAC, SEC); not shown: His10-SUMO, N-terminal, cleaved

THD1 K401A = molecular target: T3, THD1 K401A (UniProt P26039 1-405, K401A)
T3 construct: talin-1 (TLN1) head domain, residues 1-405, K401A; source: E. coli (DE3) Rosetta 2, purified (IMAC, SEC); not shown: His10-SUMO, N-terminal, cleaved

THD1 Δ401-405 = molecular target: T4, THD1 Δ401-405 (UniProt P26039 1-405, Δ401-405)
T4 construct: source: E. coli (DE3) Rosetta 2, purified (IMAC, SEC); not shown: His10-SUMO, N-terminal, cleaved

THD1 I398A = molecular target: T5, THD1 I398A (UniProt P26039 1-405, I398A)
T5 construct: talin-1 (TLN1) head domain, residues 1-405, I398A; source: E. coli (DE3) Rosetta 2, purified (IMAC, SEC); not shown: His10-SUMO, N-terminal, cleaved

THD1 I396A = molecular target: T6, THD1 I396A (UniProt P26039 1-405, I396A)
T6 construct: talin-1 (TLN1) head domain, residues 1-405, I396A; source: E. coli (DE3) Rosetta 2, purified (IMAC, SEC); not shown: His10-SUMO, N-terminal, cleaved

THD1 K402A = molecular target: T7, THD1 K402A (UniProt P26039 1-405, K402A)
T7 construct: talin-1 (TLN1) head domain, residues 1-405, K402A; source: E. coli (DE3) Rosetta 2, purified (IMAC, SEC); not shown: His10-SUMO, N-terminal, cleaved

THD1 K404A = molecular target: T8, THD1 K404A (UniProt P26039 1-405, K404A)
T8 construct: talin-1 (TLN1) head domain, residues 1-405, K404A; source: E. coli (DE3) Rosetta 2, purified (IMAC, SEC); not shown: His10-SUMO, N-terminal, cleaved

THD1 Y395A = molecular target: T9, THD1 Y395A (UniProt P26039 1-405, Y395A)
T9 construct: talin-1 (TLN1) head domain, residues 1-405, Y395A; source: E. coli (DE3) Rosetta 2, purified (IMAC, SEC); not shown: His10-SUMO, N-terminal, cleaved

THD1 KKAA = molecular target: T10, THD1 KKAA (UniProt P26039 1-405, KKAA (KK402/403))
T10 construct: the sheet prints only 'KKAA'; source: E. coli (DE3) Rosetta 2, purified (IMAC, SEC); not shown: His10-SUMO, N-terminal, cleaved

THD1 L400A = molecular target: T11, THD1 L400A (UniProt P26039 1-405, L400A)
T11 construct: talin-1 (TLN1) head domain, residues 1-405, L400A; source: E. coli (DE3) Rosetta 2, purified (IMAC, SEC); not shown: His10-SUMO, N-terminal, cleaved
T11 sequence (P26039 1-405 L400A): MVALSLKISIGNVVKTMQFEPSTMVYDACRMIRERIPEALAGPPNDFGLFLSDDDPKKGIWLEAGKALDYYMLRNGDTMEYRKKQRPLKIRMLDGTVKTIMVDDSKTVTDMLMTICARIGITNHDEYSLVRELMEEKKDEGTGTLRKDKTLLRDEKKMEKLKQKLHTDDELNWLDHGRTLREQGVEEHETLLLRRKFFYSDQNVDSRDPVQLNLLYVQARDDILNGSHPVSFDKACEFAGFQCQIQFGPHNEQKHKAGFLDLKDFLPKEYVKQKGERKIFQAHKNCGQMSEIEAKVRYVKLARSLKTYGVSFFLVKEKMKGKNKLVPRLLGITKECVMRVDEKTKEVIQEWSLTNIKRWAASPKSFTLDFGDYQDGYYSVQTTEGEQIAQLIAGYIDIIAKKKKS

T6 sequence (P26039 1-405 I396A): as the sequence (P26039 1-405 L400A) above, with I396A, A400L counted along it
T7 sequence (P26039 1-405 K402A): as the sequence (P26039 1-405 L400A) above, with A400L, K402A counted along it
T1 sequence (P26039 1-405 K403E): as the sequence (P26039 1-405 L400A) above, with A400L, K403E counted along it
T9 sequence (P26039 1-405 Y395A): as the sequence (P26039 1-405 L400A) above, with Y395A, A400L counted along it
T4 sequence (P26039 1-400, stated change not applied): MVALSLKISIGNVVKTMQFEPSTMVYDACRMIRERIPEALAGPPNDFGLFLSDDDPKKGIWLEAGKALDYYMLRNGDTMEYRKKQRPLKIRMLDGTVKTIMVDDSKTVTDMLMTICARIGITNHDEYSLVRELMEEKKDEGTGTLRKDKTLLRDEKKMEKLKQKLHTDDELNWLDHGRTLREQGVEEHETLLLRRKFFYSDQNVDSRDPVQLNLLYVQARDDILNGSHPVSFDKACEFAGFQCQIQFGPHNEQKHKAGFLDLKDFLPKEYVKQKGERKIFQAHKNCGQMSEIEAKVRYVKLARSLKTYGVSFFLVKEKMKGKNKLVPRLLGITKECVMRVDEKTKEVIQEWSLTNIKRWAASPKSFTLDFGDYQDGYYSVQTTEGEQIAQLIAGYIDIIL
T3 sequence (P26039 1-405 K401A): as the sequence (P26039 1-405 L400A) above, with A400L, K401A counted along it
T10 sequence (P26039 other isoform, or with tags, fused parts or gaps KKAA (KK402/403) | KKAA (KK402/403)): as the sequence (P26039 1-405 L400A) above, with A400L, K402A, K403A counted along it
T8 sequence (P26039 1-405 K404A): as the sequence (P26039 1-405 L400A) above, with A400L, K404A counted along it
T5 sequence (P26039 1-405 I398A): as the sequence (P26039 1-405 L400A) above, with I398A, A400L counted along it
T2 sequence (P26039 1-405 I399A): as the sequence (P26039 1-405 L400A) above, with I399A, A400L counted along it

Kd (THD1 K403E): 60.9 µM
Kd (THD1 I399A): 55.2 µM
Kd (THD1 K401A): 82.5 µM
Kd (THD1 Δ401-405): 250 µM
Kd (THD1 I398A): 141 µM
Kd (THD1 I396A): 579 µM
Kd (THD1 K402A): 45 µM
Kd (THD1 K404A): 90.1 µM
Kd (THD1 Y395A): 27.7 µM
Kd (THD1 KKAA): 62.1 µM
Kd (THD1 L400A): 190 µM
B1: ATTO 488-labeled integrin β3 cytoplasmic tail (488–β3-CT) (peptide, UniProt O54890 741-787, looked up)
peptide: {ATTO 488}-KLLITIHDRKEFAKFEEERARAKWDTANNPLYKEATSTFTNITYRGT
notes: integrin β3 cytoplasmic tail (β3-CT); source: synthetic peptide (MPIB Core Facility)
